T1: mouse PD-L2 (full-length, on cells) (mouse, UniProt Q9WUL5 20-247)
T1 construct: whole, on cells; HEK293 cells stably expressing full-length mouse PD-L2
T1 sequence (looked up): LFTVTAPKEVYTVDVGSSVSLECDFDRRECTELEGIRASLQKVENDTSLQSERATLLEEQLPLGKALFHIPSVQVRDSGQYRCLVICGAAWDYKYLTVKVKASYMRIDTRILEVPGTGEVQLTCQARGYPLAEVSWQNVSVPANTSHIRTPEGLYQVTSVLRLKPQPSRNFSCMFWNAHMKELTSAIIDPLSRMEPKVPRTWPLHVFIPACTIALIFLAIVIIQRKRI

T2: human PD-L2 (full-length, on cells) (human, UniProt Q9BQ51 20-273)
T2 construct: whole, on cells; CHO-K1 cells stably expressing full-length human PD-L2; also endogenous on NCI-H226 and transfected in Jurkat cells; also called hPD-L2; CHO-K1/hPD-L2
T2 sequence (looked up): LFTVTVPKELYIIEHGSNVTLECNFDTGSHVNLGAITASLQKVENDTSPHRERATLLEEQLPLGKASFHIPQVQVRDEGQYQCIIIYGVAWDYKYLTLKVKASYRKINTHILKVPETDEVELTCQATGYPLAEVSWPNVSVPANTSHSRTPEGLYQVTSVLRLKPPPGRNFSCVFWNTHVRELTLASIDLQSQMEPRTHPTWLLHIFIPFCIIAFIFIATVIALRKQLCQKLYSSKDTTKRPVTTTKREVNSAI

T3: human PD-L2 (full-length, on cells) (human, UniProt Q9BQ51 20-273)
T3 chain: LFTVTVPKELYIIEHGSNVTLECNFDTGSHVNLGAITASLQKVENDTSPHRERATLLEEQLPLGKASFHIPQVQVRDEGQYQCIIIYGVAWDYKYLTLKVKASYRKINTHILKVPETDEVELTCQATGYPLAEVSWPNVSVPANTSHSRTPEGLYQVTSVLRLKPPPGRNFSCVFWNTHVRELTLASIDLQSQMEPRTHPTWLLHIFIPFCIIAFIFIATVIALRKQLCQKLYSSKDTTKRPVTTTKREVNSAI

T4: recombinant human PD-L2-Fc-biotin (human, UniProt Q9BQ51 20-220, biotin)
T4 chain: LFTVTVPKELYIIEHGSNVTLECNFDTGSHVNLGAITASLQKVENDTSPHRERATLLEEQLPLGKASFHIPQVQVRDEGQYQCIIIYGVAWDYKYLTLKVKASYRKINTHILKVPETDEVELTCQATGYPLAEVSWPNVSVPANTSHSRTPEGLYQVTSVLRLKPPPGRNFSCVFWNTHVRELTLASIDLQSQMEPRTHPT


What was measured:
[1] = target: T5, human PD-L1 (full-length, on cells) (human, UniProt Q9NZQ7 19-290); assay: FACS on HEK293T cells expressing human PD-L1
T5 construct: whole, on cells; HEK293 cells stably expressing full-length human PD-L1
T5 sequence (Q9NZQ7 19-290): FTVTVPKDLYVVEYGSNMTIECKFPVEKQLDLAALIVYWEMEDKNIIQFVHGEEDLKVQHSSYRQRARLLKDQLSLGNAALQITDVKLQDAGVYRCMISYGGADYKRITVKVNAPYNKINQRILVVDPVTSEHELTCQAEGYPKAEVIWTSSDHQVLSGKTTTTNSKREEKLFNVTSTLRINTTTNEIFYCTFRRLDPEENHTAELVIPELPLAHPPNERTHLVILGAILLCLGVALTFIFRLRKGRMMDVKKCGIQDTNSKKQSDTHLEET
Protocol: (§1) HEK293T cells expressing human PD-L1 were incubated with chimeric anti-PD-L2 antibodies. Cells were washed and binding was detected with an FITC-labelled anti-rat IgG Ab (Thermo Fisher Scientific). Flow cytometric analyses were performed using a FACSCalibur flow cytometer (Becton Dickinson). PE-labelled anti-human PD-L1 clone MIH1 served as positive control. All peaks overlap except for the positive control in FIG. 7F.
(§2) The ability of anti-PD-L2 antibodies binding to mouse PD-L2, human PD-L1 or cyno PD-L2 was determined by FACS. HEK293 cells stably expressing full-length monkey PD-L2, mouse PD-L2 or human PD-L1 were established, subcloned and verified. For binding assay, 1.5×10⁵ cells in 100 μl of FACSwash buffer were incubated with individual anti-PD-L2 antibodies (0.5 μg/ml) for 30 min. After three times of washing, the cells were re-suspended in FACSwash buffer containing FITC-labelled goat-anti-rat IgG (Thermo Fisher, 1:1000) or APC-labelled goat-anti-ratIgG (Biolegend, Clone Poly4054) at a 1:2000 dilution for 20 min at 4° C., washed three times and subsequently subjected to FACS analysis. FACS data was analysed using FlowJo Software and depicted as histograms including secondary antibody only controls.

[2] = target: T1, mouse PD-L2 (full-length, on cells); assay: FACS on HEK293T cells expressing mouse PD-L2
Protocol: as §1, with “mouse PD-L2” for “human PD-L1”, “anti-mouse PD-L2” for “anti-human PD-L1”, “TY25” for “MIH1”, “6F.” for “7F.”
as §2

[3] = target: T2, human PD-L2 (full-length, on cells); assay: FACS binding on cells expressing human PD-L2 (per the examples)
[4] = target: T3, human PD-L2 (full-length, on cells); assay: FACS binding to CHO-K1 cells expressing human PD-L2
Method in brief: (§3)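 Binding EC50 values were derived in GraphPad Prism by non-linear curve fitting of percentage of maximal binding versus concentration. The binding data came from flow cytometry on a BD FACSCalibur, using CHO-K1 cells stably expressing full-length human PD-L2. Detection used APC-labelled anti-rat IgG or anti-human IgG Fc, according to the antibody format, applied for 20 min at 4° C.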

[5] = target: T3, human PD-L2 (full-length, on cells); assay: FACS, NCI-H226 cells
Method in brief: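 Binding EC50 values come from non-linear fits, made in GraphPad Prism, of percentage of maximal binding plotted against concentration. The underlying binding to endogenous PD-L2 was measured by BD FACSCalibur flow cytometry on 1.5×10⁵ NCI-H226 human lung squamous carcinoma cells, with detection by APC-labelled goat anti-rat IgG (1:2000, 20 min, 4° C).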

[6] = target: T2, human PD-L2 (full-length, on cells); assay: hybridoma supernatant screen on cells expressing human PD-L2
[7] = target: T5, human PD-L1 (full-length, on cells); assay: FACS on HEK293 cells stably expressing full-length human PD-L1
Protocol: as §2

[8] = target: T1, mouse PD-L2 (full-length, on cells); assay: FACS on HEK293 cells stably expressing full-length mouse PD-L2
Protocol: as §2

[9] = target: T3, human PD-L2 (full-length, on cells); assay: FACS, CHO-K1 expressing human PD-L2
Method in brief: as §3

[10] = target: T4, recombinant human PD-L2-Fc-biotin; assay: blocking of hPD-L2 binding to HEK293-hPD-1 cells
Method in brief: (§4)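 After 60 min at 4° C in 100 μl, mixtures of serially diluted antibody (0.03 ng/ml-0.5 μg/ml) and recombinant human PD-L2-Fc-biotin (5 ng/ml, 100 pM) were given 30 min at 4° C on 1.5×10⁵ HEK293 cells stably expressing human PD-1. Fluorochrome-conjugated streptavidin and flow cytometry measured the bound ligand against control wells marking 0% and 100% binding. IC50 values came from non-linear curve fitting in GraphPad Prism.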

[11] = target: T3, human PD-L2 (full-length, on cells); assay: blocking of hPD-1 binding to CHO-K1/hPD-L2 cells
Method in brief: (§5)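 CHO-K1 cells (1.5×10⁵) stably expressing human PD-L2 were incubated with serially diluted antibody (0.25 ng/ml-4 μg/ml) for 30 min at 4° C and washed. They were then incubated with 0.5 μg/ml recombinant human PD-1-mouse Fc for 30 min at 4° C and stained with fluorochrome-conjugated anti-mouse IgG2a (1:200) for 20 min at 4° C. Bound PD-1 was read by flow cytometry, with unspecific IgG wells setting 0% and 100% binding. IC50 came from non-linear curve fitting in GraphPad Prism.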

[12] = target: T3, human PD-L2 (full-length, on cells); assay: FACS binding to CHO-K1 cells expressing human PD-L2
Method in brief: as §3

[13] = target: T3, human PD-L2 (full-length, on cells); assay: FACS blocking of PD-1 binding to CHO-K1/hPD-L2; high antigen concentration
Method in brief: as §5

[14] = target: T4, recombinant human PD-L2-Fc-biotin; assay: FACS blocking of hPD-L2 binding to HEK293T-hPD-1; low antigen concentration
Method in brief: as §4

Binder | binding result [1] | binding result [2] | binding result [3] | EC50 [4] [nM] | EC50 [5] [nM] | binding result [6] | binding result [7] | binding result [8] | EC50 [9] [nM] | IC50 [10] [nM] | IC50 [11] [nM] | EC50 [12] [nM] | IC50 [13] [nM] | IC50 [14] [nM]
10D1-G1 N31Q.N92Q.LC (antibody, V domains shown, Optimized variant of 10D1-G1; also called 10D1-G1 N31Q.N920.LC) VH: QVQLQESGPGLVKPSGTLSLTCAVSGGSISSSYWWSWVRQPPGKGLEWIGEIFHIGSTNYNPSLRSRVTISVVKSKNQFSLNLNSVTAADTAVYFCARVSGGYGYFSGMDVWGQGTTVTVSS VL: DIQMTQSPSSLSASVGDRVTITCRASQGIRQDLGWYQQKPGKAPKRLIYGASSLQSGVPSRFSGSGSGTEFTLTISSLQPEDFATYYCLQHQSYPRTFGQGTKVEIK | no binding | no binding | binds | 0.32 |  |  |  |  |  |  |  |  |  | 
1A1-C2 (antibody, V domains shown) VH: QVQLQESGPGLVKPSGTLSLTCAVSGGSIGSSYWWTWIRQSPGKGLEWIGEIFHSGPTNYTPSLKSRVTISVDKSKNQFSLQLRSVTAADTAVYYCARTTGTTGFYYGMDVWGQGTTVTVSS VL: EVVLTQSPATLYVTPGERVTLSCRASQSVSSNLAWYQQKPGQAPRLLIYGASTRATGIPARFSGSGSGTEFTLTISSLQSEDFAVYYCQQFNNWPRTFGLGTKVEIT |  |  |  |  | 0.254 | binds | no binding (tested: 0.5 µg/ml) | no binding (tested: 0.5 µg/ml) | 0.6 | 0.03 | 0.49 | 0.62 | 0.706 | 0.0408
11C11-H5 (antibody, V domains shown, Both formats under this entry) VH: QVQLVESGGGVVQPGRSLRLSCAASGFAFSAYGMHWVRQAPGKGLEWVAISWYDGSNNYHADSVKGRFTISRDSSKNTLYLQMNSLRAEDTAVYYCAKSIGVARHYYYGMDVWGQGTTVTVSS VL: SYELTQPPSVSVSPGQTASITCSGEELGDKYACWYQQKPGQSPVLVIYQDSKRPSGIPERFSGSNSGNAATLTISGTQAMDEADYYCQAWDSITVVFGGGTKLTVLG |  |  |  |  | 0.131 | binds | no binding (tested: 0.5 µg/ml) | no binding (tested: 0.5 µg/ml) | 0.346 | 0.012 | 0.41 | 0.81 | 0.527 | 0.0149
19C3-B3 (antibody, V domains shown, Both formats under this entry; also called 19C3-C3) VH: QVQLVESGGGVVQPGRSLRLSCAASGFAFSAYGMHWVRQAPGKGLEWVAISWYDGSNNYHADSVKGRFTISRDSSKNTLYLQMNSLRAEDTAVYYCAKSIGVARHYYYGMDVWGQGTTVTVSS VL: SYELTQPPSVSVSPGQTASITCSGEELGDKYACWYQQKPGQSPLLVIYQDSKRPSGIPERFSGSNSGNAATLTISGTQAMDEADYYCQAWDSITVIFGGGTKLTVLG |  |  | binds |  | 0.102 |  | no binding (tested: 0.5 µg/ml) | no binding (tested: 0.5 µg/ml) | 0.311 | 0.013 | 0.43 | 0.44 | 0.454 | 0.0151
2C4-E4 (antibody, V domains shown, Both formats under this entry) VH: QVQLVQSGAEVKKPGASVKVSCKASGYTFTGYVMHWVRQAPGQRLEWMGWINADNGITKYSQKFQGRVTITRDTSASTAYMELTNLRSEDTAVYYCARATRGFGEFYFDYWGQGNLVTVSS VL: DIQMTQSPSTLSASVGDRVTITCRASQTISSWLAWYQQKPGKAPNLLIYKASSLESGVPSRFSGSGSGTEFTLTISSLQPDDFATYYCQQYYSYWTFGQGTKVEIK |  |  | binds |  | 0.134 |  | no binding (tested: 0.5 µg/ml) | no binding (tested: 0.5 µg/ml) | 0.485 | 0.02 | 0.53 | 0.45 | 0.612 | 0.0215
8B5-B1 (antibody, V domains shown, Both formats under this entry) VH: EVQLLESGGGLVQPGGSLKLSCAASGFTFSSYAMFWVRQAPGEGLAWVSAITGSGDHTYYADSVKDHFTISRDNSKNTLYLQMNSLKAEDTAVYYCAKDASGNSYGFPYWYFDLWGRGTLVTVSS VL: QSALTQPASVSGSPGQSITISCTGTSSDVAGYNFVSWYQHHPGKTPKLMIYDVTNRPSGVSTRFSGSKSGNTASLTISGLQAEDEADYYCSSFTSATTLVFGGGTKLTVLG |  |  |  |  | 1.52 | binds | no binding (tested: 0.5 µg/ml) | no binding (tested: 0.5 µg/ml) | 2.18 | 0.017 | 0.94 | 1.09 | 2.02 | 0.0563
